B1: 34 (peptide)
chain: IQGVGVTETPLMKED
B2: 8 (peptide)
chain: RRISLFSCLKDRHDF
B3: 16 (peptide)
chain: QFQKAETIPVLHEMI
B4: 40 (peptide)
chain: AVRKYFQRITLYLKE
B5: 49 (peptide)
chain: AEIMRSFSLSTNLQE
B6: 48 (peptide)
chain: VVRAEIMRSFSLSTN
B7: 35 (peptide)
chain: VGVTETPLMKEDSIL
B8: 38 (peptide)
chain: KEDSILAVRKYFQRI
B9: 36 (peptide)
chain: TETPLMKEDSILAVR
B10: 37 (peptide)
chain: PLMKEDSILAVRKYF
B11: 7 (peptide)
chain: AQMRRISLFSCLKDR
B12: 39 (peptide)
chain: SILAVRKYFQRITLY
B13: 22 (peptide)
chain: FNLFSTKDSSAAWDE
B14: 24 (peptide)
chain: KDSSAAWDETLLDKF
B15: 21 (peptide)
chain: QQIFNLFSTKDSSAA
B16: 29 (peptide)
chain: YTELYQQLNDLEACV
B17: 46 (peptide)
chain: SPCAWEVVRAEIMRS
B18: 15 (peptide)
chain: FGNQFQKAETIPVLH
B19: 11 (peptide)
chain: KDRHDFGFPQEEFGN
B20: 43 (peptide)
chain: TLYLKEKKYSPCAWE
B21: 12 (peptide)
chain: HDFGFPQEEFGNQFQ
B22: 14 (peptide)
chain: QEEFGNQFQKAETIP
B23: 45 (peptide)
chain: KKYSPCAWEVVRAEI
B24: 44 (peptide)
chain: LKEKKYSPCAWEVVR
B25: 10 (peptide)
chain: SCLKDRHDFGFPQEE
B26: 9 (peptide)
chain: SLFSCLKDRHDFGFP
B27: 13 (peptide)
chain: GFPQEEFGNQFQKAE

Target: HLA-DR DRB1*0101 on fixed HOM-2 cells (human)
Assay: competition
Details: modification not given

Row | Binder | IC50
1 | B1 | > 500 µM
2 | B2 | 180 µM
3 | B3 | 350 µM
4 | B4 | 95 µM
5 | B5 | 15 µM
6 | B6 | 25 µM
7 | B7 | > 500 µM
8 | B8 | > 500 µM
9 | B9 | 25 µM
10 | B10 | 85 µM
11 | B11 | 150 µM
12 | B12 | 100 µM

Target: HLA-DR DRB1*0401 on fixed WT-51 cells (human)
Assay: competition
Details: modification not given

Row | Binder | IC50
13 | B13 | > 500 µM
14 | B14 | 450 µM
15 | B15 | 70 µM
16 | B16 | 5 µM

Target: HLA-DR DRB1*0701 on fixed MOU (MANN) cells (human)
Assay: competition
Details: modification not given

Row | Binder | IC50
17 | B1 | > 500 µM
18 | B17 | 8 µM
19 | B18 | 25 µM
20 | B19 | > 500 µM
21 | B20 | > 500 µM
22 | B21 | > 500 µM
23 | B4 | 70 µM
24 | B22 | > 500 µM
25 | B5 | 15 µM
26 | B23 | 200 µM
27 | B6 | 7 µM
28 | B24 | > 500 µM
29 | B25 | > 500 µM
30 | B7 | > 500 µM
31 | B8 | > 500 µM
32 | B9 | > 500 µM
33 | B10 | > 500 µM
34 | B12 | 60 µM
35 | B26 | > 500 µM
36 | B27 | > 500 µM

— patent publication US20060062761A1
